Data from PMC8346688 (Redox Biology, 2021).

Assays:
native gel or EMSA = biological target: the molecule itself; test: native gel or EMSA
[1] = biological target: the molecule itself; test: non-reducing SDS-PAGE with western blot

Protein | stoichiometry N (native gel or EMSA) | stoichiometry N [1]
BirA*-Flag-Prdx2 (natural protein, UniProt P32119 1-198, looked up) MASGNARIGKPAPDFKATAVVDGAFKEVKLSDYKGKYVVLFFYPLDFTFVCPTEIIAFSNRAEDFRKLGCEVLGVSVDSQFTHLAWINTPRKEGGLGPLNIPLLADVTRRLSEDYGVLKTDEGIAYRGLFIIDGKGVLRQITVNDLPVGRSVDEALRLVQAFQYTDEHGEVCPAGWKPGSDTIKPNVDDSKEYFSKHN | 10 | 2
His-Prdx2 (natural protein, UniProt P32119 1-198, looked up) MASGNARIGKPAPDFKATAVVDGAFKEVKLSDYKGKYVVLFFYPLDFTFVCPTEIIAFSNRAEDFRKLGCEVLGVSVDSQFTHLAWINTPRKEGGLGPLNIPLLADVTRRLSEDYGVLKTDEGIAYRGLFIIDGKGVLRQITVNDLPVGRSVDEALRLVQAFQYTDEHGEVCPAGWKPGSDTIKPNVDDSKEYFSKHN | 10 | 2
